Laboratory results taken from publication PMC7850899, “Nutrient transceptors physically interact with the yeast S6/protein kinase B homolog, Sch9, a TOR kinase target” (Biochemical Journal, 2021).

B1: GST-tagged Sch9 (GST-Sch9) [S. cerevisiae] / Gap1 peptide 222-GVKGYGEAEFVFSFI-236 [S. cerevisiae] (parent complex)
chain 1: MMNFFTSKSSNQDTGFSSQHQHPNGQNNGNNNSSTAGNDNGYPCKLVSSGPCASSNNGALFTNFTLQTATPTTAISQDLYAMGTTGITSENALFQMKSMNNGISSVNNNNSNTPTIITTSQEETNAGNVHGDTGGNSLQNSEDDNFSSSSTTKCLLSSTSSLSINQREAAAAAYGPDTDIPRGKLEVTIIEARDLVTRSKDSQPYVVCTFESSEFISNGPESLGAINNNNNNNNNNQHNQNQHINNNNENTNPDAASQHHNNNSGWNGSQLPSIKEHLKKKPLYTHRSSSQLDQLNSCSSVTDPSKRSSNSSSGSSNGPKNDSSHPIWHHKTTFDVLGSHSELDISVYDAAHDHMFLGQVRLYPMIHNLAHASQHQWHSLKPRVIDEVVSGDILIKWTYKQTKKRHYGPQDFEVLRLLGKGTFGQVYQVKKKDTQRIYAMKVLSKKVIVKKNEIAHTIGERNILVTTASKSSPFIVGLKFSFQTPTDLYLVTDYMSGGELFWHLQKEGRFSEDRAKFYIAELVLALEHLHDNDIVYRDLKPENILLDANGNIALCDFGLSKADLKDRTNTFCGTTEYLAPELLLDETGYTKMVDFWSLGVLIFEMCCGWSPFFAENNQKMYQKIAFGKVKFPRDVLSQEGRSFVKGLLNRNPKHRLGAIDDGRELRAHPFFADIDWEALKQKKIPPPFKPHLVSETDTSNFDPEFTTASTSYMNKHQPMMTATPLSPAMQAKFAGFTFVDESAIDEHVNNNRKFLQNSYFMEPGSFIPGNPNLPPDEDVIDDDGDEDINDGFNQEKNMNNSHSQMDFDGDQHMDDEFVSGRFEI
chain 2: GVKGYGEAEFVFSFI
B2: GST-tagged Sch9 (GST-Sch9) [S. cerevisiae] / HA-tagged wild type Gap1 (HA-Gap1) [S. cerevisiae] (parent complex)
chain 1: B1 chain 1
chain 2: MSNTSSYEKNNPDNLKHNGITIDSEFLTQEPITIPSNGSAVSIDETGSGSKWQDFKDSFKRVKPIEVDPNLSEAEKVAIITAQTPLKHHLKNRHLQMIAIGGAIGTGLLVGSGTALRTGGPASLLIGWGSTGTMIYAMVMALGELAVIFPISGGFTTYATRFIDESFGYANNFNYMLQWLVVLPLEIVSASITVNFWGTDPKYRDGFVALFWLAIVIINMFGVKGYGEAEFVFSFIKVITVVGFIILGIILNCGGGPTGGYIGGKYWHDPGAFAGDTPGAKFKGVCSVFVTAAFSFAGSELVGLAASESVEPRKSVPKAAKQVFWRITLFYILSLLMIGLLVPYNDKSLIGASSVDAAASPFVIAIKTHGIKGLPSVVNVVILIAVLSVGNSAIYACSRTMVALAEQRFLPEIFSYVDRKGRPLVGIAVTSAFGLIAFVAASKKEGEVFNWLLALSGLSSLFTWGGICICHIRFRKALAAQGRGLDELSFKSPTGVWGSYWGLFMVIIMFIAQFYVAVFPVGDSPSAEGFFEAYLSFPLVMVMYIGHKIYKRNWKLFIPAEKMDIDTGRREVDLDLLKQEIAEEKAIMATKPRWYRIWNFWC

Variants of: B1
Test: substitution peptide microarray; 100 or 500 µg/ml GST-Sch9; parent: 100; read off a plot

| percent of parent | Variant |
| --- | --- |
| ~330 % of wild type peptide | chain 2 GVKGYFEAEFVFSFI [chain 2 G6F] |
| ~240 % of wild type peptide | chain 2 GVKGYGEAEFVFCFI [chain 2 S13C] |
| ~140 % of wild type peptide | chain 2 FVKGYGEAEFVFSFI [chain 2 G1F] |
| ~150 % of wild type peptide | chain 2 GVKGYGEAEFVFSFE [chain 2 I15E] |

Variants of: B2
Test: GST pull-down assay; parent: 100

| percent of parent | Variant |
| --- | --- |
| 86.9 % of Gap1WT | chain 2 V232K |
| 98.9 % of Gap1WT | chain 2 F231D |
| 102 % of Gap1WT | chain 2 F231D, chain 2 V232K, chain 2 F233D |
| 138 % of Gap1WT | chain 2 F233D |
